The source of these data is paper PMC4503747.

The experiment concerns the target GST-Yih1[2–258], overexpressed in yeast from a galactose-inducible promoter (S. cerevisiae) (UniProt P25637). Briefly: pull-down; in vivo GST pull-down: GST fusions overexpressed in yeast from a galactose-inducible promoter (yih1Δ strains; gcn1Δ strain H2556 for the fragments; also cells arrested in G1 with α-factor and released), WCE (1-2 mg) on glutathione beads, immunoblot for endogenous proteins.

Values joined by “and” are separate entries in the source; they are usually repeats but may differ in a detail not shown here. Identical values can stand only once.

GST-Yih1[2–258], overexpressed in yeast from a galactose-inducible promoter (S. cerevisiae), sequence (P25637 2-258): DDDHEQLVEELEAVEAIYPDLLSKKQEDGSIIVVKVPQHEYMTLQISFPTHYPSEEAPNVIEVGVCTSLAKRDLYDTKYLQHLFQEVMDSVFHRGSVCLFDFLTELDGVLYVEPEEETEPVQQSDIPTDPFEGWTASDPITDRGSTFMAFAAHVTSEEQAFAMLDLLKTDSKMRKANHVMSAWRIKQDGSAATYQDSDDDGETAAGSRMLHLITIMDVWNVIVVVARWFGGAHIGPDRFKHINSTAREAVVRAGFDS

As for “Cdc28 (endogenous, yeast whole cell extract) (from UniProt P00546 1-298) (natural protein)”, the fold increase of precipitated Cdc28 relative to GST-Yih1 in S-G2/M (30, 60 and 90 minutes after release) against cells arrested in G1 with α-factor was 2 fold and 3 fold.
